The nature of the data set: protease stability score; higher = more stable; yeast display proteolysis, trypsin and chymotrypsin.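 Also: log10 excess protease needed over predicted unfolded state with 0 meaning unfolded.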
In the case of “DEEKNETAKQLQRIEETGNKDEVQEMLDKDADIHIGDKVVHGREEYARQVHRRRDEINVQIDEVHYKDEEGSVVVRYTAMQEVNGRPIKNSFQRVQHIDNGRVKHMHFKFSEEQERQMRG”, the protease stability score is -0.055.

Turning to “DEEKNFREWLHKFNEANESNDEEELKHQMDKNAHVTYGDKTIHGRDTVAEHLANKNRRADNIEFRIRHVSVENGQLQFRIDWNLRHNGENDRFEIKVRADVHNGNVQLQEASVD”, the protease stability score is 0.134.

Turning to “DEEKNKKIARSLFQVFRTGDENRAQDMADENATARVGDKSVHGKEEFRKFVQEFLRQVDHMDVQEYRVRGNRINIIAVIHHNGQRLKVVITIVLHNGRIVHMVIRYTNPSQWKRVMS”, the protease stability score is 0.597.

On to “DEEKNQDHAKELAKAIVSNNEEDIERLMDPNATMLVGDKQVHGMEEARKLIRDLKKRADHIRVTDVTVSGNKIRVSFVMNVNGQNLQFVVDAQVHNGKITSMRIQARNDDIKRRLEQ”, for which the protease stability score came to 1.28.

Consider “DEEKNQELLHHWLKQFSHGNTENLRKNVDKDVRVRVGDKVFNGRETAMRHWSEQVKQVDHVQINHVEVDGDSARADVVYVVNGRERRFEREATIKGDKFKEIEYRTN”, for which the protease stability score was -0.248.

In turn, “DEEKNREVKRFLDVMQKGDEDKLRRNVDPNVRFHIGDKTVQGHESFVEQLKTEKQHLRLRIDIKSVRATGNDIEVTAKVEYEHNGQPQHKELQIDVKMHNGRVKTIRYTRRG” gave a protease stability score of 0.224.

As to “DEEKNRKQATKVARNIADGNEDEIRKLADEDARANVGDKQVHGRDHVRKLLSDFHHTADRVKLDTINVSGDKVNAKLVLDYNGRRVSVVVQAEVRNGRLKQVNIRATNPEHQKKVES”, the protease stability score is 0.239.

On to “DEEKNRTAARRAAEVLRTNDPDEMSKLADKDATARIGDKHFHGKETLKEAMEELKRQVDHLRVESFRLDGDKIVITAVMSHNGKKQKIVVVAEVENGKVVDFKMDPDQVTRMQK”, for which the protease stability score turned out to be 0.532.

“DEEKNTRLIKEFMEALRTGDEHQVRRLMDPNAKVVYGDTRFHGREEAAKFIVEWASRIDHIDVKDMRVNGNRASLTFVANFDGRNHDVKIDFTLQDGKFRQVNFTSN” registered a protease stability score of 1.09.

“DEEKQAEDFFKEQYEIFRTGDQNREKDMVDPNANVNVGEYRYHGSKDLMKLMRQLRERVDHVQVTLRSINVKNGKAFIHVEEKFKVNGRVDTDRYVIVLSNHNGKWLLVTIQRG” yielded a protease stability score of 0.749.

Sequence “DEEKQAHHLLRLLQEVLNNGDEDKARKLADPNVELSVGDKEVHGREKFTKYLYQISKRSDHANMSLTRIDTKPGRIVLVFTLRLNHNGNNTHKRMRAVASVRNGQVVVKHLVDQ” came in with a protease stability score of 0.728.

Take “DEEKQAKTALKRYKDAIKDGDEELAKRLFDKHARIEIGDKEVHGREEIARRIREMVERADHIDIKLQSMRVRGDHIRLELTMTVNINGKKEKSRFQFVMQRRGDEVYVTSMHQT”: the protease stability score was -0.003.

Take “DEEKQDTWAKEFVKMLKQGNKTDARRLFDPNATLEYGDKRVHGREQAVEAQKQRSDKVDHMQVDSVSAHNGKMDIDLVLNVNGERKRQRVVANIHNGKIKYFSVQDS”: the protease stability score is -0.248.

“DEEKQEQVLRDQNTNDPDQMERLLDENVKVDVGDEEIHGRETVVKFLRHFIDRIDHVDVRELSVRNGRFHIEVVYTFDGRRMRYILHMEVKDGHVKYQQIQATSDEDKKRLDEMES” yielded a protease stability score of 2.38.

Regarding “DEEKQKEYADRFNEILKSGNEDEFRKMADEDVTAQYGDKEVHGREEVTKTMSRFLRTVDKIKVDSVEVHNGRVIIHFVVRVNGQDQRVVMEFKVHNGKIKELVMRSQ”, the protease stability score was 1.51.

The sequence “DEEKQSTRALQMLHNIATGNEREAQKLMDEDVKLQVGDKHLHGKEQVRHRIHELLRTVDHMDVKDMHYSGDHVSVTAIARVNGQNQHVELSAHVSNGTIKDIRVRYS” showed a protease stability score of 1.25.

Take “DEEKRAEDFFRKLLQVMETGDEDKQRKMADPNARVIIGEKTFHGRENMAKAMKELRDRVDSIEFDLREIETEPGRIVINVVVILDHDGDKDERELNIRAKITGDTLVLEEIKDT”: the protease stability score is -0.309.

On to “DEEKRAKTIVKKIHKAWTHNDERTFKNMADPNAEVRVGDQTYHGMEQWQREQAKRAQNYDHVDFDVKNVEVKGEKVDILMEFQMNDNGKNDTERRVVVVVDVNGQDRIRSVHKG”, for which the protease stability score was -0.256.

On to “DEEKRKHAREILKVEETGNPDDLKELFDPNAKFEYGDKTFHGMTDFRQHHERVRKEMHIDIKSVSVSVHNGQAQVDVQYEHEHNGRPDSKRANRTFDIRNGRVQSATQKDDQ”, for which the protease stability score was -0.537.

Regarding “DEEKRREFAKFAMNVVQTGDPREFSKMADPNAKFDIGDKVFHGREKAVKHWEEYSQRVDHIQIQDVKFQGNEIHILAQDRHNGRDRSVVWVVTVHNGRAKYVSVDDN”, the protease stability score is 0.027.

Sequence “DEEKVAKRFLDNWVRALHHNNEKQFKKMLPPDARVEIGDKTYNGREQVVTFFAEWAKQFDHISLDLKDMRVHNGTMDIDVKVVANDNGKNEHMRVVYVIEIKGDEATFRSATHK” gave a protease stability score of 1.87.

“DEEKVAQKFAEEMNKVWEQGDPDRMAELADEDVRMKYGDKEIHGRDDVEDHLRTVFKEVDSASIDVKRVSNHNGRVDIKASITMRDNGSHSNTNIDIKAEVSGDKVKLKEQHHQ”: the protease stability score is -0.067.

Turning to “DEEKVFQVLVKMVQYYVSGDAEKVKKLGKDDAKVKAVDVEYRGLEQVEKAVEQFKRYGVKLQLTDHKEDGDRVDAKLVLHLGGTTWEFRVTVRADGGKVDELKVEVSDEVMKRIQDG”, the protease stability score stood at 0.471.

With “DEEKVHKQAHDYRTALQRGDPDRAAHLIDKHARIRVGDHTVNGRTQFKKMMEQLHTRIDKIEFKDVDVQGNKVNINIVVEVNGRRVEVTVDLDVQGDRVKQAVLTFRDPDNAKQMLG”, the protease stability score was -0.111.

Sequence “DEEKVKEIAKNFADAMRNGDPDQASKLLDPNAKIHVGEFNYKGREAANRMAKTMRDQFDHLDIKSIEVSGNSIKIEAQLHYNGQTIDIELFITVHNGHIESVTLHYRNEEDEEKLQS” came in with a protease stability score of 1.08.

As to “DEEKVKKLLEQMVRAYVSGHAEEVKKLGKDDGELHAGDQTYHGKEQIYKVVKKFKEYGVQLQITDMKYDGDRLDVKAELHHGGTTWEFRVTVQADGGKVDRLQVDVSEEAKKTIKHG”, the protease stability score stood at 1.

In turn, “DEEKVKLASEIWKAFDRNNPDRVEELIDPNARFQYGDKKYHGMEQAKNHIKKILDDANIHIKSISMTDHNGKVRAEVEFVRNHNGKPQTDRVEMSAEFTNGRVTHFEVTEVP” yielded a protease stability score of 0.871.

The sequence “DEEKVKNHILEALNAMMTGDPDKVRRMVDKDARLRIGEKVFHGREEVSKAAEEFREQFDHITITDYRVEPGHARVHAVINVNGKNVEITIKATATNGKIQRIVLDPRAVERLKS” came in with a protease stability score of 0.926.

In turn, “DEEKVKRLLKRVAEDYVSGDAETVRKLGKDDAELEVGNTTYHGKEQMYKVVEEFKKYGVRLQVRNAEVRGNKVTMEVDLDMGGDTWKFTVHVEADGGKADKVKIDVSEEVKKRIEHG” came in with a protease stability score of 0.291.

For “DEEKVKVARKFMEVVKENNEEDAHRLASENVDVVVGDKRLHGRSNLMRKLRKEREEWRFRISIKDIKVENGRVHIHFKVQRVVNGQPQTYEQRMVMVFHNGRVKSVHYRIPEEQLNRIES”, the protease stability score is 0.463.

As to “DEEKVNERFFTKMKKAHEHGDPDQLRTLFDPNVKVRYGDKSITGRENVVKHIKKLLDEADSVSIQLKRVRVSGNKFSFDVVVSFNINGKHDNQRVIIVAEQHNGHARVKSVQQK”, the protease stability score amounted to 0.949.

For the sequence “DEEKVQDHNRKLWKLMKTGDSDQLRREMPPTAHAHVGDKSWHGSEAQNAMQEQARMQVDHLEVKKVDVTGDKIHQNVVRKENGRTENRVFAFQVDNGEIKQVEIRRS”, the protease stability score was -0.146.

“DEEKVRHQATRFFKALQTNDEDHAVKLADENVRIVIGDKTLRGREDLKDFVRKIKNQADRVELKSVEVHGNKAKLDFIVHVNGRRVKITMVIEVDNGRVSQLELNPHDVRKMEQ” displayed a protease stability score of 1.42.

As for “DEEKVSEAHEFMQDVQNGDEKSLNDLMDKNDEVNVGDKTVHGREDFTRQFQKRRKELRLNIQSVSATRHGDSVVVHVQAQRNHNGNPEESRYVVILSKHNGRIQNVDVKEDK”, the protease stability score turned out to be 0.919.

On to “DEEKVVKKHVEDLRENWRTNNEDELMKLAPPDVRVEVGDTEIHGHDQLRHWAQEMSDRIDHLEVDFRSFELENGRAEVNAKVVNNHNGKEDTNSVNITAEVQGDRMKIESMKVK”, for which the protease stability score was -0.492.

For “DEEKVVKVLKQALEAVQKGNQERVRKLGKPDVEVEAVNIREKGPEALRKAAQYVQKLGDKFEYKEEREEGDKVTTKVDVTRGGQTVTYQVDVVAEGGKVKEWVVNFSDTFAERVKKS”, the protease stability score was -0.268.

For “DEEKYKRLFRKVFEAAIKGDEEKVKKFGKPNVKYEYADKQYEGPEAMKHVVDLAKKVGAEVKTREQEVKGNTAKAKFQYKLGDRTVQTTVEVKYEGDKVKEARVKLTDEVKKILHQG”, the protease stability score worked out at 0.065.

Turning to “DEELADKMRKWWQNVHQGNHDHIREMVDPNVKFQVGNKQYHGRETMSSLVVELKREITFRVDRMSASVHNGRLHVRLDIKYEVNGQPDRENLRIEANIHNGKIKSLSVQMDNEKLKKLHK”, the protease stability score was found to be 1.03.

In turn, “DEELADLAHKLLEAYHTGNPDDVVRNMDPNARQTIGDRTVHGRENIKKMLRKVLQEWRIDIHLRSYHLNGNQVKLSADFNLTVNGKPDEFTATIIVIQHNGKIHEVQLRMPEQDFREITS” gave a protease stability score of 1.05.

For the sequence “DEELAHKIAKLMETNNFQDMAKQADENATAVVGDFKVRGRSQLETLMQRFLDQIDHFEVKSWHIDNGNVHVNFVASVNGRTIEAQVIIHVSNGRIKSIELRVRNQDVQKHLRNMLS”, the protease stability score amounted to 1.05.

“DEELAKHFERVVRENNPDELQKQFDEDARVSVGNKRYHGREKVNDAIKRFMTNADEIRIEDIEIHGETIKVVYRFRVDGQSARVVMVVNIKDGRVKEMKISATDPRDVKVLDEVME”: the protease stability score worked out at 1.7.

In the case of “DEELAKIVLRLLQAEENGDERTLQENADPNVTINVGEKRIRGMETYAKEVTERRKRMRVEVDVKDYRNHGEHVVIVNTRLNESNGKPHRNRMQFVIHAHNGRITKISDNTDS”, the protease stability score was -0.009.

Sequence “DEELAKKVLEKWVKVVDKGDDQAVKKLYKPNGTWINGDEETQGAEKVVKMMQKAQKKGDQFQVRKAKVEGNHVEFHYDLRIGDQTATFTVKVQVQGGRVEEVKVEVDKKAKEIITKG” gave a protease stability score of 0.06.

For “DEELAKNLKEWWDVLKTGDTDRLKEMADPNAKFQIGDQTIHGMDRFVKEQVHHMQQMRFEIKVDSFSAHDGRIDIDAVQRVRVNGVPIDYTVKIRAEAHNGKWKSMELEIPENVVRELER”, the protease stability score turned out to be 1.27.

With “DEELDKRIVDALHAIQKGDERRLRQLFDKNVSFKVGDEEYHGMENYAKDQKRRRDKIRVQLQSVDAKHQGDRAHVDVQRELDINGRPRTVRMIVVAHAKNGRVKNMSMNVDPKEIRELDT”, the protease stability score is -0.159.

Regarding “DEELEDLASRIWKAIDHNNPDELKRNFDENVNAQVGDTTYHGMDDWAREIVHNLKEMRIHWSDMRVSKQGEQVRIKARFVTKHNGRPQNMRMTAVFEAHNGRVQDYKQNNRG”, the protease stability score is -0.27.

With “DEELEDRWRKMLEARKTGDEDRIKENMDPNAELNVGDKTYHGHDKLAKTLVDEMRTIRVEYKKFSMDARGDTVEAKYRVIENHNGKPQEDTHRWSATNRGDKIQHVDVRSDK”, the protease stability score was -0.435.

Values taken from the NTF2 design screens of Basanta et al. (2020).
